We go through ten molecules from patent US20230226096A1 (Orna Therapeutics, Inc., priority 2020, published 2023).

To fix the notation:
B1: Fipivirus A (nucleic acid)
DNA: TGCGGGTAAACTCCCGCATGTGTGAATGAGGCGATGTCCCAGGAACTAACTGCCGATCCTGGTTTTAACTACGATCCGTATTTGTTACTAATGCGATATCCCCCCATTGTTTGCCTCCATGTTGTTTTCAACGCTTTTGGCCTTGAGTGTTATCAAGTGTTTTAGCGACATAGTGGGAAGCTACGGCTGCGTCCCCATTTTTGAGTGGCGACCCAGTTTTAGTGGCCACTCTGTCCCTGAACTGCGCTATAATGTGAATTTATGTTCACAAAAACGGACTGATGTAACTGTTAATGACTAAGGAATAGTACCTCACTGAAGTATCAAGACCCCGTTCGAGCGGTGTACATATATGGATGGAAACCTTGTCTGAGTCATCTCGAATACTAATCAATGAGGGATGTCGAGTAAGCATATCATGAACCACATAGAATAGTGGGGTTTCGGGGTTAGAGGCTCTCTGCAGCAATGTATCTCTAACACCATGGCCGAAATGAGAGATAGAGACCACGATGTTTGTGTGTAAGTAATGATGTGTGGAAAGAAAATTCTGAATGTTGGTATGATATCAGTCTAAGGGGAGTGGCTCACCTAAGAGCTACCCAAACATTTCACAGCAGACAACATAACGTACTGAGAGTAGTTGGAAGGTTCCAGAAATCAGT
modifications: Fipivirus A
B2: Fipivirus C (nucleic acid)
DNA: CGCGGTTAAACCCGCGCAACCTTCTTTCAGCCGCGTCTGAGTAGCGCGGTTAGTCCTGATACACAGTTTCCTGTTGGGTACTGTGTCTTCGGGTGAATGCTCTTGTGTGAATGTTTTAGGCTGTTTAAGGGAAGCGTTTCCCCGTGCGCTGTGAGGGTTTCTCACGCTCTTTCGGGGTGCAGTCTCTTCTGTTGTTCATTAAGATGTATGGATGCACTGTTGTGAAGGATTTGTGAACTGGGGATCGACACCCCGTGAGGGGTGCCCCAGTGTCCATAGGAGTTTGCTGGAGAGGTGTGTTGCTGTAGTGACTATCCGTGACCTGGCATTCTAAGGTGTTGACCCCAACCTGTGAGGGTCTGGATCGCAGTGTTGAAGTGCTTTGGAGGGTTCAATGGGGTTTCTGTAGTGGATATTATGTGCTTGACGACTACTGGTACGAGTGTATTGGGGGTCTACATGTGTGA
modifications: Fipivirus C
B3: Limnipivirus A (nucleic acid)
DNA: TTCTTTGGATATCCATTTAACGTGTACCCTATACGATAATTGGGGTGGATTCTGGATGCCTAGTTCCAGTGATTGGTTAAGAACTCGTTTACTACGTATAGTATGATTAGCAAAGTGCTCGATTGATCACGTAATGATCTATGTGGTTAAAAACCCAGTAGTATGGTATATACTCAGTAGTGTACACTGTGAGTACAACTCTTGGCGTAGAGAGAACAATTCACCCGAATCCGTGGCGTATCCATGGAAATAAGTTTACCTAATTGTATGTTACAAGGCATATGAGACATTTATGAGATATGGTTTATTTTGACTAAACGAGTGTAGAGGTGGTGGAGTCTATCCAACTTCAAGCCATGCAATTGTTGTGTTGATTGATATCATTGACCATTTTTGTGGATTGTGTACACATACAATTTGAAAATTAACCCCCTCAAGAATAAGACATGGGACCATTCGTGGTAGATACCGTGCTCGGATGCTTGAGATTAGATGGGTTAGACTAGTTTTGGAATGAGATTGCCGAGAAAGTCCCGCTAGACATGTTTTACAAGTCGTGGTATTCCGCTAGACTTTTTCGCAGACACATGGAAGGGTCCATGTGTTGTGCAATTGCAGGGTGACAGCCCAACTGCAGAGTTTTCCTTACTAGAATAAAAATCTGTTGTCAATTTT
modifications: Limnipivirus A
B4: Crohivirus A (nucleic acid)
DNA: GTTGAAGTCCATTTCTTGCTTGCCCCCGATGAATCCTGTTAAGGCCTCACGGCCCTAAGGGTGAAACTCGGTTATCCCCTCCTGTACTTCGAGAAGATTAGTACAACACTATGAAATCTACATCTTGTGATCCGGGATAACCCCAATCCCAGAAACCTGTGATGGGCGTCACCACCCCTCTTATGGTAACATAAGGGTGTCGCCGCGTTGGCACAGGACCCTTTGGGCTGGATGTTTTTAGTAATGGTGTCGAAGGTCCTATTGAGCTACAGGAGTTTCCTCCGCCCTGGTGAATGCGGCTAATCTTATCCCTGAGCCTAAGGTTGCGATCCAGCAACTTGATGGTCGTAATGCGTAAGTTGGGGGCGGAACCGACTACTTTCCAGAAGGCGTGTTTCTTTGTTTTGTCTGTTACTATGGTGCATGATATAGATATTGAATATTTGATCTTTTTGAGCTGTTTCTTATCTTATTGCTACATCCTTTCAGGTGTTGGATTTACATTTTGGTTAATAAG
modifications: Crohivirus A
B5: Aquamavirus (nucleic acid, listed as Aquamavirus sp.)
DNA: TTCAAAGGTGGCGGGAGAGTTGGCCTCACGCTGTTTAGCGTGAGAGCTGGCTCTCCTGCCCCTTCCCCTGAGCCGGGGATCTTGGCTCATTCCCCTCTTTTCTATCCTCCCTCATTGGACTTTACGGATGACCCGGCATAAACTTGACAACCGATGTTGGATTTCCCTTGTGGCTGTGATGGAGGACATACCCTCGGGTGTAGTTGTGTGCGTGTCGCTCTGCGACTCGAGCTTCAAAGTGGTGCTGAAATATTGCAAGCGTCGTTGCTCGATTAACGGAGTGGTACAATCCTATGAACCCAAGTGCATTCATGCGAAAGCCCCGGAGGGGTGAGTAGCATGGACTCGAATCAGAAGAGCTGGAGCTCGCTTGGTACGGCACGTAGCATTGCTTTGCCTAAAGACCAAGGGGGTATGGCTATAGGTGGGGGCCTATAGCTTGTCCAGTGCTGGTTGACAGACTCGTGCTACGCGTCTGGTTCGAGTATAAGTAGCTGCAACTCACT
B6: Avisivirus B (nucleic acid)
DNA: CACCCCCTACTGCCCTAACCCCCAAAGTTAGTTATAGGGTGGCTCCCTACCCTTACTCCACGGGGTAAGCCCTAACCCGGTTGAATCTCAAGATCAGCCTTAGCGAGGACTATTAGTACCGCTCAAACCCTTTGCCTGTAGTGCCCAGGGGTCACAGAGGGGTGACCCTCTCCCTGGGGCCCAAAAGGCTAGGTGGCAAGACAGGGTCCAAGTGAGGGGCTACTCTAAGTAGCCCCAAGCTGAACATCCTGTCTGAAGCCACCCTTGCAGGGCCAGGTTTGATTGGGGAAACTAGACACCAGCTTTGTCCTGGGATTGGGGGGATATCGAGTTAGTCCAGGAGGTGCGAGTAGATGCCCCCGAAGGTACCCCAGGCACATCTGGGATCTGATCGGGGGCCCGTGACTATACAATAGGTAAACCGGGTTAAAAAACATGAAAGCGCCTCTCTCTTTCCTACTTCTTTTATTGACTGGTGACAAAAATAGCAGT
modifications: Avisivirus B
B7: Fipivirus E (nucleic acid)
DNA: CTCTTCCGATCTTGGGGGTTCGCCCCCATGTCTCATTTCAACTAGCCGTGTGTCTAGTTAACGCACCGCCTCACCCTGGTCGTTATCGGGTCGGTTCTTGCGACCGTTAGATCGTGAGCGTTTCTGAGGATCAGTTCGTATAAGTTCTCCGGTGTGGCGACCGTAAAATCGTCACGTCCCATGCAATAGATGACGTTAAACTCGTTTGCCAGTTACATAAAGGAATGTTGTTACTTTTAAATTGTCTGTTACATTTAACATCTTGCCAGTATGATGCTACTGTACACTACGGGTGTAGGAACCTTGTAGTGTGACGTATCACTCATATGTGGATGGGTGCTCCAGACCTTTATGGAAGCTCTCAGTTAGTAGTGATCCTTGACTTCATTGAGCCCTGGTAACAGTGGAAGTCAAGATGTATATGTTGCTCAACACACTTCGGTGCTACGAAGCTGTTTGTGGAAGTACTGGCGAGGTTCATTCTGAATCATATGTTTGTCACATAGTCAGGGAGTGCCGTCGCTTACGACGGACCCTTTTTCTTTATAATTACAAATCTGTGTCTCAAGTGTTGTTGGCTGGTTTTCTTCTTCTGTTTTCATTGTTCATATATATACGTCAGAGTGAAAGACTCGGTATATACAAAACTGATCCAGA
modifications: Fipivirus E
B8: Avisivirus A (nucleic acid)
DNA: TTCACTCGCTTTCCCCCCCTCTCTATAGGGGCGGTCTTTTAATTCTTATTAATTTCCTACTTTACTATCAAATTTCTTCTAAGTAGGGACTGAGGTCACTTAGCCCTCCCTCTCCTGGGCTTTCCAGGGTTATAGAGGTTCTAAAGCTAAGCCATGTGTCTTGAGCTACACTTAGTACAAAGGTTTAGTAATGATTGTACATGCCAGTAACCTTCTAGTGCCCATGGATTAAAGAGTGGTAACACTCTCCATGGGGCCCGAAAGGCTAGTGGGCATAGTTGGCATCAAGGAAGGGGTCCCCACCCCAACCTGAATTGCTGGCTAGAAGCTCACCTTAGAAGAAGTGCTGGGTGACAACGTGTCCAATCGTGAACGACTGATGGAAACGTGTGGAGATGGATATGTGGGGGTTCACTGAGTAGATGCCCTGAAGGAGAAATCTGATCAGGGGCCCGTGACTATACGCTAGGTAAACCGGGTATAAAAACCATGAAAGGTGGCCCAAAATCTCTTCCTTTTATTTTATTTCTATGTTGGTGACAGTCAAG
modifications: Avisivirus A
B9: Kunsagivirus B (nucleic acid)
DNA: GATTTTCTGGTTATCCCTTTTGGACTTGGTAGGGGCCCACGTGCCCACCCACCTCTGTGTGTGTTGATTTCTAATCGATGCCTGGCAGTGGCGGCCACCTCTCCTTACTGGTAAACCTCCGGTGAGTGAAGTTGTCAAGCTACAGGTACCGTGCAGGATGAAATGCGCACATGTGAACAAACTAGGAGTCATACACCGGGTCAAACTCTGGAAACGGAGTCCGGGACTCTGACCTTGGTTGGGTGAGCTCGAGGCATCACATTGATGGACGCGATTCGCTATCCTTCCCTAGTAGGACCTTGTGGTGTACCCCTGGTTGGGAATCCAGGGCTGGTCGGGTGCAGGGTGACAGCCTGTTCTCCACCTCAACCATTGTAGGAGAAATCAACCCCT
modifications: Kunsagivirus B
B10: RhPV (nucleic acid)
DNA: GATAAAAGAACCTATAATCCCTTCGCACACCGCGTCACACCGCGCTATATGCTGCTCATTAGGAATTACGGCTCCTTTTTTGTGGATACAATCTCTTGTATACGATATACTTATTGTTAATTTCATTGACCTTTACGCAATCCTGCGTAAATGCTGGTATAGGGTGTACTTCGGATTTCCGAGCCTATATTGGTTTTGAAAGGACCTTTAAGTCCCTACTATACTACATTGTACTAGCGTAGGCCACGTAGGCCCGTAAGATATTATAACTATTTTATTATATTTTATTCACCCCCCACATTAATCCCAGTTAAAGCTTTATAACTATAAGTAAGCCGTGCCGAAACGTTAATCGGTCGCTAGTTGCGTAACAACTGTTAGTTTAATTTTCCAAAATTTATTTTTCACAATTTTTAGTTAAGATTTTAGCTTGCCTTAAGCAGTCTTTATATCTTCTGTATATTATTTTAAAGTTTATAGGAGCAAAGTTCGCTTTACTCGCAATAGCTATTTTATTTATTTTAGGAATATTATCACCTCGTAATTATTTAATTATAACATTAGCTTTATCTATTTATA
modifications: Rhopalosiphum padi virus

In the data set the test system is HEK293 cells. In kind it is cell-based, human. Conditions: luminescence from secreted Gluc in supernatant 24 hours after transfection of HEK293 cells; circular RNA encoding Gluc with the named IRES (UTR truncated to 675 nt).
On to B1, for which the Expression was found to be 2.69E+05.
Molecule B2 had an Expression of 1.09E+05.
In the case of B3, the Expression is listed as 8.30E+04.
B4 registered an Expression of 9.96E+04.
B5 yielded an Expression of 4.51E+06.
The same measure for B6: 8.68E+04; for B7: 1.10E+05.
In turn, B8 returned an Expression of 1.91E+05.
B9 gave an Expression of 8.01E+04.
Next, B10: 1.10E+05.
